{
  "source": "patent US20120134979A1",
  "about": "“METHODS AND COMPOSITIONS FOR THE TREATMENT OF SICKLE CELL DISEASE” (priority 2010, published 2012)",
  "molecules": {"B1": {"name": "PEG-ADA: polyethylene glycol-modified adenosine deaminase, a drug used to lower adenosine concentrations in ADA-deficient humans (protein, UniProt P56658 2-363, looked up)", "Adenosine deaminase": "AQTPAFNKPKVELHVHLDGAIKPETILYYGRKRGIALPADTPEELQNIIGMDKPLSLPEFLAKFDYYMPAIAGCREAVKRIAYEFVEMKAKDGVVYVEVRYSPHLLANSKVEPIPWNQAEGDLTPDEVVSLVNQGLQEGERDFGVKVRSILCCMRHQPSWSSEVVELCKKYREQTVVAIDLAGDETIEGSSLFPGHVKAYAEAVKSGVHRTVHAGEVGSANVVKEAVDTLKTERLGHGYHTLEDATLYNRLRQENMHFEVCPWSSYLTGAWKPDTEHPVVRFKNDQVNYSLNTDDPLIFKSTLDTDYQMTKNEMGFTEEEFKRLNINAAKSSFLPEDEKKELLDLLYKAYGMPSPASAEQCL", "modifications": "PEGylated"}},
  "key": {"[1]": {"tested_on": "SCD Tg mice", "experiment": "Life span of RBCs in SCD Tg mice (in vivo biotin labelling)", "design": "species or system mouse", "protocol": "Measurement of life span of RBCs in SCD Tg mice. SCD Tg mice were treated with or without PEG ? ADA (2.5 unit/week) for 8 weeks. At 6 week-treatment, RBCs were labeled in vivo by using N-hydroxysuccinimide (NHS) biotin and the life span of circulating red blood cells was measured as described (Perumbeti, et al. A novel human gamma-globin gene vector for genetic correction of sickle cell anemia in a humanized sickle mouse model: critical determinants for successful correction. Blood. 2009; 114(6):1174-1185).\nSpecifically, 50 mg/kg of NHS biotin was injected into the retro-orbital plexus of SCD Tg mice (prepared in 100 μl sterile saline just prior to injection; initially dissolved at 50 mg/ml in N,—N,-dimethylacetamide) Blood samples (only 5 μl) were collected after first day of biotin-injection from tail vein by venipuncture to determine the percentage of RBCs labeled with biotin. Subsequently, 5 μl of blood were obtained by tail vein every 3 days for measurement of biotinylated RBCs until the 10th day. The percentage of biotinylated RBCs was calculated by determining the fraction of peripheral blood cells labeled with Ter-119 (to identify RBCs) that were also labeled with a streptavidin-conjugated fluorochrome by flow cytometry."}, "[2]": {"tested_on": "RBCs from SCD patients", "experiment": "Hypoxia-induced 2,3-DPG in erythrocytes purified from SCD patients", "type": "cell-based, human", "conditions": "hypoxic conditions (2% oxygen)", "protocol": "Isolation of total erythrocytes and treatment of human and mouse erythrocytes in vitro. Blood collected with heparin as an anti-coagulant was centrifuged at 240×g for 10 min at room temperature, followed by aspiration of plasma and white interface. Packed red blood cells (RBCs) were washed 3 times with culture media (F-10 Ham's with 1% penicillin/streptomycin, 10% fetal bovine serum (FBS), and re-suspended to 4% hematocrit (HCT). One ml of RBCs was added to each well of a 12-well plate. Normal RBCs purified from humans were treated with different concentrations of 5′-(N-ethyl-carboxamido) adenosine (NECA, an adenosine receptor agonist, Sigma-Aldrich, St. Louis, Mo.) ranging from 1-50 μM for different time points (from 1 to 18 hr) under normoxic conditions. Normal RBCs were treated with 10 μM NECA in the presence or absence of adenosine receptor antagonists, including theophylline, PSB36, SCH442416, MRS1754 and MRS3777 (Tocris Bioscience, St. Louis, Mo.) at 10 μM. In addition, normal RBCs were treated directly with the A2BR agonist (BAY 60-6583, Bayer HealthCare AG, Wuppertal, Germany) or the A2AR agonist (CGS21680) (Tocris). Similarly, the mouse RBCs were treated with or without NECA at 10 μM in the presence or absence of theophylline (10 μM). In addition, RBCs purified from 4 adenosine receptor deficient mice were treated with 10 μM NECA. After 18 hours, cells were collected and 2,3-DPG levels were measured as described below. RBCs were purified from SCD patients and treated with or without 10 μM NECA, 5 units/ml polyethylene glycol-adenosine deaminase (PEG-ADA) or 3 mmol/L glycolic acid (Sigma-Aldrich), 10 μM MRS1754 (A2BR antagonist) under ambient oxygen (normoxia) or different levels of hypoxic conditions (for 3 hours with shaking at 37° C. At the end of experiments, 2,3-DPG levels were measured and the percentage of sickled cells determined as described below.\n2,3-DPG analysis. 2,3-DPG concentration in RBCs was detected by a commercially available kit (Roche, Nutley, N.J., and as described in Ericson A, de Verdier C H. A modified method for the determination of 2,3-diphosphoglycerate in erythrocytes. Scandinavian journal of clinical and laboratory investigation. 1972; 29(1):84-90)."}, "[3]": {"tested_on": "WT mice", "experiment": "WT (control) mice treated with PEG-ADA or PSB1115 for 8 weeks", "type": "in vivo, mouse", "conditions": "chronic PEG-ADA enzyme therapy", "text": "Mice. Berkley sickle cell disease transgenic mice (SCD Tg mice), expressing exclusively human sickle hemoglobin (HbS) were purchased from The Jackson Laboratory Inc (Paszty, C. Transgenic and gene knock-out mouse models of sickle cell anemia and the thalassemias. Curr Opin Hematol 4, 88-93, 1997). C57BL/6 mice used as controls were purchased from Harlan Laboratories. Adenosine receptor deficient mice were obtained from the following sources: A1R-deficient mice (Jurgen Schnermann, NIDDK, NIH); A2AR-deficient mice (Jiang-Fan Chen, Boston University School of Medicine); A2BR-deficient mice (Michael R. Blackburn, University of Texas-Houston Medical School); and A3R-deficient mice (Marlene Jacobson, Merck Research Laboratories). […]\nMouse organ isolation and histological analysis. Mice were anesthetized and body weight was determined. […] Semiquantification of histological changes was analyzed by Image-Plus, Pro software."}},
  "data": [
    {"molecule": "B1", "values": [
      {"measurement": "fold increase of half-life of RBCs", "setting": "[1]; chronic treatment vs untreated", "value": 2, "unit": "fold"},
      {"measurement": "half-life of RBCs", "setting": "[1]; chronic treatment, untreated 2 days", "value": 96, "unit": "h"},
      {"measurement": "hypoxia-mediated induction of 2,3-DPG", "setting": "[2]", "value": "reduced"},
      {"measurement": "effect on kidney histology of control mice", "setting": "[3]", "value": "no significant effect"}
    ]}
  ]
}
